The record followed here is patent US20240393333A1.

Assay [1] has as its target human intestinal alkaline phosphatase (human) (UniProt P09923). Nature of the assay: immunoblot, serial dilution of human small intestinal lysate; 0.059 µg lysate loaded. (A western blot detects proteins with antibodies after separation by electrophoresis.)
For assay [2] the target is unchanged. The assay is described as follows: immunoblot, serial dilution of human small intestinal lysate; 7.5 µg lysate loaded.
Assay [3] shares this target. The assay is described as follows: immunoblot, serial dilution of human small intestinal lysate; 0.015 µg lysate loaded.
For assay [4] the target is unchanged. Nature of the assay: immunoblot, serial dilution of human small intestinal lysate; 3.75 µg lysate loaded.
Assay [5] has the same target. Nature of the assay: immunoblot, serial dilution of human small intestinal lysate; 1.875 µg lysate loaded.
For assay [6] the target is unchanged. The assay is described as follows: immunoblot, serial dilution of human small intestinal lysate; 0.117 µg lysate loaded.
Assay [7] has the same target. Nature of the assay: immunoblot, serial dilution of human small intestinal lysate; 0.029 µg lysate loaded.
Assay [8] has the same target. The assay is described as follows: immunoblot, serial dilution of human small intestinal lysate; 0.234 µg lysate loaded.
For assay [9] the target is unchanged. The assay is described as follows: immunoblot, serial dilution of human small intestinal lysate; 0.938 µg lysate loaded.
For assay [10] the target is unchanged. Nature of the assay: immunoblot, serial dilution of human small intestinal lysate; 0.469 µg lysate loaded.

Sequence of UniProt P09923 (P09923 20-503 limits assumed): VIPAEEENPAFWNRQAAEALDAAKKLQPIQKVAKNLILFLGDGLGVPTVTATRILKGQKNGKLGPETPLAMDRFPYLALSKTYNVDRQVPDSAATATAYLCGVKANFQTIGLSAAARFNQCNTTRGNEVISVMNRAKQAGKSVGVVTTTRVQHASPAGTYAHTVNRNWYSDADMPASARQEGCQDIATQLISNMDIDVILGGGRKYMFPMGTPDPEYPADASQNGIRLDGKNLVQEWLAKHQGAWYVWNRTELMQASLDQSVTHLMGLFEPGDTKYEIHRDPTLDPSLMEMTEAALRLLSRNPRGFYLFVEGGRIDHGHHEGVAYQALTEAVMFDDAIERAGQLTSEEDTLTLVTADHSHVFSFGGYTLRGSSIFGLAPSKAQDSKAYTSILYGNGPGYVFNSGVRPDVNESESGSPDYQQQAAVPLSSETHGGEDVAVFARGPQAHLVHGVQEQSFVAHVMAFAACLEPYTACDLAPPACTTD

“primary rabbit polyclonal antibodies against human iAP (Abcam, ab7322) (antibody)”: the mean relative fluorescence units for the total iAP (relative fluorescence units) in assay [1] amounted to 4920; in assay [2], 217000; in assay [3], 227; in assay [4], 234000; in [5] it was 211000; in [6] it was 18200. The mean relative fluorescence units for the total iAP (relative fluorescence units) in assay [7] amounted to 1160; in assay [8], 44100; in assay [9], 143000; in assay [10], 75700.
